Experimental data published in article PMC6380602, “The polymeric immunoglobulin receptor-like protein from Marsupenaeus japonicus is a receptor for white spot syndrome virus infection” (PLoS Pathogens, 2019).

Molecular target: the molecule itself
Assay: cross-linking; BS3 (5 mM, 2 h, room temperature) on hemocytes of shrimp 30 min after WSSV injection, SDS-PAGE, western blotting with anti-MjpIgR antibodies; oligomer size by molecular mass

B1: native MjpIgR (Marsupenaeus japonicus polymeric immunoglobulin receptor-like protein) (receptor, UniProt A0A3S8D7Y1 1-562, looked up)
chain: QEYSVDEPNNRDVVFNGVQSSDVSLIFDDADIIVNPGERLDLNCGFQGQYRHCIWELEGAKPIQVQDVYDDVHPGMSRPEVSEGNECGIVINSVSTEQHGKWTCRVFITGNSLEGSKKVIVTVKPTYPILEVDNSQLLEVTSDAETPVKCVVAAARPAVGIRWFLGDKDVTVMAETEETPTDNEGMYKSISTLRRTFEPMENGMMLVCSVSHKTLTVPENASIPLNVVFKPVEKPVSTYYQIRPGSDYEVKLNFSANPPPTRKEWRYGDTFQNIAVSIEIPGAKDRYETYIEELGNGMYTATLRIAGFKEEDANQRYMLVVQNDLGETSYKVRLSMDDAPKDGDSETRDHDKNPSTEYSVSEGIVFDDDTMSNTLSGGAVAGIVIVVLIIVTAVAAAGYARYRQMFCFAPVVTPDPEEGKETKEEHSDTESARGANTTRAANLKNSLGRLTQVFKKPKKEQETKLENIGDDEKRSLTTEDPKKGSPIKEQNVDDKEVVYAELDLGKSESDKKTEVKAEDKTEYAQIVGTVTDNREDEKKE
notes: also called pIgR-like protein; source: endogenous, hemocytes of M. japonicus 30 min after WSSV injection
stoichiometry N: 4
